Experimental data from US20110305749A1, “HIV-1 Envelope Polypeptides for HIV Vaccine” (priority 2008, published 2011).
Read-outs that look alike come from different tables or passages of the source.

Assays:
[1] = system: Human Peripheral Blood Mononuclear Cells (PBMC); assay: Immunosuppression of selected peptides: Con A stimulated lymphocyte proliferation (EdU incorporation); format: cell-based; conditions: Con A (5 ug/mL); for inhibition profile of proliferation at various peptide concentrations: dose-dependence (FIG. 11); for inhibition of lymphocyte proliferation: peptide concentration of 50 uM, 72 hrs, relative to Con A stimulated cells without peptide (FIG. 10)
Text: The peptides are dimerized via the C-terminal Cysteines and added at the concentrations indicated below.

Human PBMC = assay: Mixed leukocyte reaction: PBMC stimulated by Jurkat cells expressing HIV envelope variants; conditions: PBMC with Mitomycin C arrested Jurkat stimulator cells expressing the envelope, 1:1, 96 hrs (FIG. 12)
Method: The experiment utilizes Human PBMC prepared fresh from healthy donors. These are stimulated by adding a human T cell line (Jurkat) at a 1:1 ratio. The jurkat cells have been irreversible arrested by incubating them with 50 ug/mL Mitomycin C for 1 hour prior to PBMC stimulation. Cultures are maintained and lymphocyte proliferation is measured 96 hrs later by EdU incorporation and Click-iT labelling with Oregon Green (Invitrogen, Denmark) as recommended by the manufacturer. The degree of activated lymphocytes is proportional to the flourescence detection.

IFN-gamma = assay: Cytokine modulation: IFN-gamma in supernatant of ConA stimulated PBMC (ELISA); conditions: 50 uM peptide, Con A stimulation of PBMC, 72 hrs, ELISA (FIG. 14)
Method: (§1) Donor PBMC's were maintained at 10^5 cells/well in a 96-well. […] After 72 hrs, lymphocyte proliferation was measured and supernatants analysed by ELISA for levels of the proinflammatory cytokines, IFN-gamma (FIG. 14 grey bar) and TNF-alpha (FIG. 14 black bar).

TNF-alpha = assay: Cytokine modulation: TNF-alpha in supernatant of ConA stimulated PBMC (ELISA); conditions: 50 uM peptide, Con A stimulation of PBMC, 72 hrs, ELISA (FIG. 14)
Method: as §1

BAB/No Ag = conditions: R, i.m.; cited from earlier work
HIV-1 [2] = conditions: M, cited from earlier work
β-gal = conditions: M, i.m.; cited from earlier work
[3] = HSV-3; M, i.m./i.d.; cited from earlier work
HIV-1 [4] = conditions: C, i.m.; cited from earlier work
Influenza = conditions: M, i.m.; cited from earlier work
HSV-2 = conditions: M, i.m.; cited from earlier work

LQARILAVETLIQNQQLLNLWGC [HIV M/O chimera]
inhibition profile of proliferation at various peptide concentrations [1]: less steep | inhibition of lymphocyte proliferation [1]: 22% | lymphocyte proliferation (activation of PBMC) (Human PBMC): decrease is relieved

LQARVLAVERYLKDQQLLGIWGC [CS-3]
inhibition of lymphocyte proliferation [1]: 82% | IFN-γ secretion (IFN-gamma): significantly reduces | TNF-α secretion (TNF-alpha): significantly reduces

LQARVLAVERYLKDQQLLRIWGC [HIV G19R]
inhibition profile of proliferation at various peptide concentrations [1]: less steep | inhibition of lymphocyte proliferation [1]: 15%

LQNRRGLDLLFLKEGGLC (HIV) [CKS-17, reference compound]
inhibition of lymphocyte proliferation [1]: 93%

MCP-1
Effects: Ab/IgG (BAB/No Ag): ↑^e | Effects: Protection (BAB/No Ag): ↑

RANTES
Effects: Ab/IgG (BAB/No Ag): ↑^e | Effects: Protection (BAB/No Ag): = | Effects: CTL (HIV-1 [2]; i.m.): ↑

B1: MIP-1β (protein, UniProt P14097 24-92, looked up)
C-C motif chemokine 4: APMGSDPPTSCCFSYTSRQLHRSFVMDYYETSSLCSKPAVVFLTKRGRQICANPSEPWVTEYMSDLELN
Effects: Ab/IgG (BAB/No Ag): ↑^e | Effects: Protection (BAB/No Ag): ↓

B2: CD40L (protein, UniProt P27548 112-260, looked up)
CD40 ligand, soluble form: MQRGDEDPQIAAHVVSEANSNAASVLQWAKKGYYTMKSNLVMLENGKQLTVKREGLYYVYTQVTFCSNREPSSQRPFIVGLWLKPSSGSERILLKAANTHSSSQLCEQQSVHLGGVFELQAGASVFVNVTEASQVIHRVGFSSFGLLKL
Effects: Ab/IgG (β-gal): ↑ | Effects: CTL (β-gal): ↑ | Effects: IgG1/IgG2a (β-gal): ↓ | Effects: Protection (β-gal): ↑

B3: TCA-3 (protein, UniProt P10146 24-92, looked up)
C-C motif chemokine 1: KSMLTVSNSCCLNTLKKELPLKFIQCYRKMGSSCPDPPAVVFRLNKGRESCASTNKTWVQNHLKKVNPC
Effects: Ab/IgG (HIV-1 [2]; i.m.): ↓ | Effects: CTL (HIV-1 [2]; i.m.): ↑ | Effects: DTH (HIV-1 [2]; i.m.): ↑ | Effects: IgG1/IgG2a (HIV-1 [2]; i.m.): ↓

B4: MIP-1α (protein, UniProt P10855 24-92, looked up)
C-C motif chemokine 3: APYGADTPTACCFSYSRKIPRQFIVDYFETSSLCSQPGVIFLTKRNRQICADSKETWVQEYITDLELNA
Effects: Ab/IgG (BAB/No Ag): ↑^e | Effects: Protection (BAB/No Ag): ↑ | Effects: Ab/IgG (HIV-1 [2]; i.m./i.n.): ↑ | Effects: CTL (HIV-1 [2]; i.m./i.n.): ↑ | Effects: DTH (HIV-1 [2]; i.m./i.n.): ↑ | Effects: IgG1/IgG2a (HIV-1 [2]; i.m./i.n.): ↓ | Effects: CTL (HIV-1 [2]; i.m.): ↑ | Effects: IgG1/IgG2a (HIV-1 [2]; i.m.): ↑

B5: CD86 (protein, UniProt P42082 24-309, looked up)
T-lymphocyte activation …: VSVETQAYFNGTAYLPCPFTKAQNISLSELVVFWQDQQKLVLYEHYLGTEKLDSVNAKYLGRTSFDRNNWTLRLHNVQIKDMGSYDCFIQKKPPTGSIILQQTLTELSVIANFSEPEIKLAQNVTGNSGINLTCTSKQGHPKPKKMYFLITNSTNEYGDNMQISQDNVTELFSISNSLSLSFPDGVWHMTVVCVLETESMKISSKPLNFTQEFPSPQTYWKEITASVTVALLLVMLLIIVCHKKPNQPSRPSNTASKLERDSNADRETINLKELEPQIASAKPNAE
Effects: Ab/IgG [3]: = | Effects: DTH [3]: = | Effects: IgG1/IgG2a [3]: = | Effects: Protection [3]: = | Effects: CTL (HIV-1 [4]): ↑ | Effects: Ab/IgG (HIV-1 [2]; i.m.): = | Effects: CTL (HIV-1 [2]; i.m.): ↑ | Effects: DTH (HIV-1 [2]; i.m.): ↑ | Effects: IgG1/IgG2a (HIV-1 [2]; i.m.): = | Effects: CTL (Influenza): ↑

B6: CD80 (protein, UniProt Q00609 38-306, looked up)
T-lymphocyte activation …: VDEQLSKSVKDKVLLPCRYNSPHEDESEDRIYWQKHDKVVLSVIAGKLKVWPEYKNRTLYDNTTYSLIILGLVLSDRGTYSCVVQKKERGTYEVKHLALVKLSIKADFSTPNITESGNPSADTKRITCFASGGFPKPRFSWLENGRELPGINTTISQDPESELYTISSQLDFNTTRNHTIKCLIKYGDAHVSEDFTWEKPPEDPPDSKNTLVLFGAGFGAVITVVVIVVIIKCFCKHRSCFRRNEASRETNNSLTFGPEEALAEQTVFL
Effects: Ab/IgG (HIV-1 [2]; i.m.): = | Effects: CTL (HIV-1 [2]; i.m.): = | Effects: DTH (HIV-1 [2]; i.m.): = | Effects: CTL (Influenza): = | Effects: Ab/IgG (HSV-2): = | Effects: DTH (HSV-2): = and ↑ | Effects: IgG1/IgG2a (HSV-2): = | Effects: Protection (HSV-2): = and ↑
